Series [1] concerns the target CC-OB domain fragment of PAN-M87C (subcomplex I) (Methanococcus jannaschii). In words: cross-linking; PAN-M87C after partial trypsin proteolysis and gel filtration (Superose 12); fractions 1 and 3 in 1 mM tetrathionate 1 h at room temperature, desalted, non-reducing SDS-PAGE, silver stain.
Series [2] addresses T1, PAN (proteasome-activating nucleotidase) (Methanocaldococcus jannaschii, UniProt Q58576, L73C/M87C).
T1 construct: full-length, pRSETA, E. coli BL21(DE3)-RIL, heat precipitation, anion exchange and size exclusion; no tag mentioned; homohexamer
The series is described as follows: NADH-coupled ATP regenerating ATPase assay ([…] nm). It counts as biochemical. As to conditions: oxidized (tetrathionate): coiled-coil disulfide crosslinked C1 and C3, no saturation with ATP; pH 7.5, 37 °C, 20 mM MgCl2; original residue 73 not given.

Series [3] concerns the molecule itself. In words: cross-linking; disulfide cross-linking of engineered cysteines; 1 mM tetrathionate, 1-2 h, room temperature, 50 mM Tris pH 7.5 + 5% glycerol, no nucleotide, PAN at or below 0.25 mg/ml; desalted on G50, non-reducing SDS-PAGE, Coomassie, densitometry of monomers vs. dimers.
Substrate in series [4]: Nc1ncnc2c1ncn2[C@@H]1O[C@H](COP(=O)(O)OP(=O)(O)OP(=O)(O)O)[C@@H](O)[C@H]1O
In words: purified protein. It counts as biochemical, Methanocaldococcus jannaschii. As to conditions: reduced (uncrosslinked), pH 7.5, 37 °C.

Series [5] concerns the molecule itself. The series is described as follows: native gel or EMSA; native-PAGE of oxidized PAN cysteine mutants. (In general: In EMSA bound probe runs differently from free probe, usually more slowly.)

Numbering of substitutions follows the chain as printed. Numbers in names are those of the source. Bounds are passed on as bounds.

T1 sequence (Q58576 whole entry L73C/M87C): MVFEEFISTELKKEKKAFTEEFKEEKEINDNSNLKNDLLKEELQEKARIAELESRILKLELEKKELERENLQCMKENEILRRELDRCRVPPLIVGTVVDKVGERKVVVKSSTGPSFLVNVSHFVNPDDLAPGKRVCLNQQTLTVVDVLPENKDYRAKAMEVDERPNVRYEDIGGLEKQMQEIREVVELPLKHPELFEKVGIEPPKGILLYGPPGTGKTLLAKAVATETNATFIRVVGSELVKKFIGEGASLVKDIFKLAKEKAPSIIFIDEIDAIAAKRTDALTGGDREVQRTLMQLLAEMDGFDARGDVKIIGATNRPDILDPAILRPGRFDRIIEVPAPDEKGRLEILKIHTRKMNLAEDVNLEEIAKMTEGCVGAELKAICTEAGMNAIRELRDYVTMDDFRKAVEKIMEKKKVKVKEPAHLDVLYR

“CC-OB domain fragment of PAN-M87C (subcomplex I) (domain or fragment)”: the percent cross-linked dimers in series [1] was 100%. As for `Nc1ncnc2c1ncn2[C@@H]1O[C@H](COP(=O)(O)OP(=O)(O)OP(=O)(O)O)[C@@H](O)[C@H]1O` [ATP], the Michaelis-Menten constant (Km) in series [2] is more than 3000 µM.

B1: PAN 59C (enzyme, Methanococcus jannaschii, UniProt Q58576 1-430, looked up)
chain: MVFEEFISTELKKEKKAFTEEFKEEKEINDNSNLKNDLLKEELQEKARIAELESRILKCELEKKELERENLQLMKENEILRRELDRMRVPPLIVGTVVDKVGERKVVVKSSTGPSFLVNVSHFVNPDDLAPGKRVCLNQQTLTVVDVLPENKDYRAKAMEVDERPNVRYEDIGGLEKQMQEIREVVELPLKHPELFEKVGIEPPKGILLYGPPGTGKTLLAKAVATETNATFIRVVGSELVKKFIGEGASLVKDIFKLAKEKAPSIIFIDEIDAIAAKRTDALTGGDREVQRTLMQLLAEMDGFDARGDVKIIGATNRPDILDPAILRPGRFDRIIEVPAPDEKGRLEILKIHTRKMNLAEDVNLEEIAKMTEGCVGAELKAICTEAGMNAIRELRDYVTMDDFRKAVEKIMEKKKVKVKEPAHLDVLYR
notes: Expressed from pRSETA; no tag named; source: E. coli BL21-DE3-RIL, purified (heat precipitation, anion exchange, size exclusion)
Take B1: in series [3], the percent cross-linked came out at 69%. Moreover, the Km in series [4] (20 mM MgCl2, original residue 59 not given) amounted to 436 ± 29 µM.

B2: PAN 87+73+59C triple mutant (enzyme, Methanococcus jannaschii, UniProt Q58576 1-430, looked up)
chain: B1 chain with L73C, M87C
notes: Expressed from pRSETA; no tag named; also called PAN 87C+73C+59C; source: E. coli BL21-DE3-RIL, purified (heat precipitation, anion exchange, size exclusion)
As for B2, the percent cross-linked in series [3] is 74%.

B3: PAN 73C (enzyme, Methanococcus jannaschii, UniProt Q58576 1-430, looked up)
chain: B1 chain with C59L, L73C
notes: as for B1
For B3, the binding result in series [3] was “binds”.

B4: PAN 87+59C (enzyme, Methanococcus jannaschii, UniProt Q58576 1-430, looked up)
chain: B1 chain with M87C
notes: as for B1
With B4, the binding result in series [3] is recorded as “binds”.

B5: PAN 80+66C (enzyme, Methanococcus jannaschii, UniProt Q58576 1-430, looked up)
chain: B1 chain with C59L, L66C, L80C
notes: as for B1
As to B5, the percent cross-linked in series [3] amounted to 72%. Moreover, the “stoichiometry N” value in series [5] was determined as 6.

B6: PAN 80C (enzyme, Methanococcus jannaschii, UniProt Q58576 1-430, looked up)
chain: B1 chain with C59L, L80C
notes: as for B1
Consider B6, for which the binding result in series [3] is reported as “binds”.

B7: PAN 87+80C (enzyme, Methanococcus jannaschii, UniProt Q58576 1-430, looked up)
chain: B1 chain with C59L, L80C, M87C
notes: as for B1
As to B7, the binding result in series [3] was “binds”.

B8: PAN-M87C (proteasome-activating nucleotidase, M87C mutant) (enzyme, Methanococcus jannaschii, UniProt Q58576 1-430, looked up)
chain: B1 chain with C59L, M87C
notes: Expressed from pRSETA; The fraction F1 after partial trypsin proteolysis is called full-length or near full length; also called PAN-87C; M87C PAN; source: E. coli BL21-DE3-RIL, purified (heat precipitation, anion exchange, size exclusion)
Regarding B8, the “stoichiometry N” value in series [5] turned out to be 6.

B9: PAN 80+73C (enzyme, Methanococcus jannaschii, UniProt Q58576 1-430, looked up)
chain: B1 chain with C59L, L73C, L80C
notes: as for B1
Regarding B9, the binding result in series [3] is on record as “binds”.

B10: PAN 73+66C (enzyme, Methanococcus jannaschii, UniProt Q58576 1-430, looked up)
chain: B1 chain with C59L, L66C, L73C
notes: as for B1
In the case of B10, the binding result in series [3] is given as “binds”.

B11: PAN (proteasome-activating nucleotidase) (Methanocaldococcus jannaschii DSM 2661; L59C/L73C/M87C) (protein)
chain: B1 chain with L73C, M87C
notes: full-length, pRSETA, E. coli BL21(DE3)-RIL, heat precipitation, anion exchange and size exclusion; no tag mentioned; homohexamer
Take B11: the Michaelis constant (Km) in series [4] (20 mM MgCl2, original residues 73 and 59 not given) was found to be 580 ± 64 µM.

B12: PAN 87+73C (enzyme, Methanococcus jannaschii, UniProt Q58576 1-430, looked up)
chain: B1 chain with C59L, L73C, M87C
notes: Expressed from pRSETA; no tag named; also called PAN 87C+73C; source: E. coli BL21-DE3-RIL, purified (heat precipitation, anion exchange, size exclusion)
With B12, the “stoichiometry N” value in series [5] amounted to 6.

B13: PAN 80+59C (enzyme, Methanococcus jannaschii, UniProt Q58576 1-430, looked up)
chain: B1 chain with L80C
notes: as for B1
On to B13, for which the binding result in series [3] is recorded as “binds”.

B14: PAN 66C (enzyme, Methanococcus jannaschii, UniProt Q58576 1-430, looked up)
chain: B1 chain with C59L, L66C
notes: as for B1
Consider B14, for which the binding result in series [3] is reported as “binds”.

In general, Km refers to the concentration of substrate that gives half-maximal velocity. In general, stoichiometry N refers to the number of molecules, sites or subunits per partner or assembly.

These data come from publication PMC6006169, “Conformational switching in the coiled-coil domains of a proteasomal ATPase regulates substrate processing” (Nature Communications, 2018).
